US20040214227A1, “Bioluminescence resonance energy transfer (bret) fusion molecule and method of use” (priority 1999, published 2004)

What was measured:
[1] = target: Rluc:caspase:EYFP fusion protein expressed in HeLa cells (pCEP4/Rluc-caspase-EYFP) (Renilla) (UniProt P27652); assay: cell-based or functional assay
[2] = target: GFP1:caspase-3:Rluc fusion protein expressed in HeLa cells (pGFP1:caspase-3:Rluc) (Aequorea victoria; Renilla) [GFP: P42212]; assay: cell-based or functional assay
[3] = target: Rluc:enterokinase:EYFP fusion protein, N-terminal His tag, purified from bacteria (pQE-32) (UniProt P27652)
[4] = target: Rluc:EYFP fusion protein, N-terminal His tag, purified from bacteria (pQE-32) (UniProt P27652)
[5] = system: HeLa cells transfected with pGFP1::Rluc; assay: apoptosis induction BRET assay, control construct without caspase-3 site; format: cell-based; details: 1 μM staurosporine, 5 hours
Procedure: (§1) PGFP1:caspase-3:Rluc DNAs and the original plasmid pGFP1::Rluc (without the caspase-3 site) were transfected into HeLa cell using LipofectAMINE (BRL/Gibco-Life technologies) in 100 mm dishes and 8 μg of plasmid DNA as described in the manufacturer's protocol. Twenty-four hours post-transfection transfected cells were harvested and distributed into 96-well microtiterplate (white Optiplate from Packard) at a density of 30 000 cells per well. The following day, cells were washed with PBS and were induced to undergo apoptosis by adding 100 μl of Iscove media without serum and phenol red (BRL/Life Technologies) containing staurosporine at a final concentration of 1 μM (+inducer; see FIG. 13) or 100 μl of Iscove alone (-inducer). Cells were incubated for 5 hours at 37° C. After this period, 50 μl of BRET buffer (PBS Ca^2+/Mg^2++glucose without aprotinin) and 50 μl of DeepBlueC (20 μM) were added to start the bioluminescence reaction. Total assay volume was 200 μl. Light emissions were detected using the BRETCount (read length of 1 sec. for each filter, SPC mode, temperature 25° C.).

[6] = system: HeLa cells transfected with the GFP1:Caspase-3:Rluc sensor; assay: apoptosis induction BRET assay, GFP1:Caspase-3:Rluc sensor; format: cell-based; details: 1 μM staurosporine, 5 hours, 37° C.; DeepBlueC; at time zero; ratio decreased
Procedure: as §1

[7] = system: HeLa cells transfected with the apoptosis Rluc:Caspase:EYFP sensor; assay: apoptosis induction BRET assay, Rluc:Caspase:EYFP sensor; format: cell-based; details: 1 μM staurosporine, 5 hours, 37° C.; coelenterazine h; ratios decreased
Procedure: pCEP4/Rluc-EYFP and pCEP4/Rluc-caspase-EYFP DNAs were transfected into HeLa cell using LipofectAMINE (BRL/Gibco-Life technologies) in 100 mm dishes as described in the manufacturer's protocol. 24 hours post-transfection, transfected cells were harvested and distributed into 96-well microtiterplates (white Optiplate from Packard) at a density of 30,000 cells per well. The following day, cells were induced to undergo apoptosis using 1 μM staurosporine dissolved in ISCOVE media (BRL/Gibco-Life technologies) without serum and phenol red at 37° C. (total volume here is 100 μl) for 5 hours. 50 μl of BRET buffer (PBS Ca^2+/Mg^2++glucose without aprotinin) and 50 μl of coelenterazine h (20 μM) were added to start the bioluminescence reaction. Light emissions were detected using the BRETCount (read length 1 sec for each filter, temperature 25° C.). Data was collected 10 minutes after the addition of coelenterazine h. The assay was done in quadruplicate.

Sequence of Rluc:EYFP fusion protein, N-terminal His tag, purified from bacteria (pQE-32) (P27652 whole entry, the tested form may be a part): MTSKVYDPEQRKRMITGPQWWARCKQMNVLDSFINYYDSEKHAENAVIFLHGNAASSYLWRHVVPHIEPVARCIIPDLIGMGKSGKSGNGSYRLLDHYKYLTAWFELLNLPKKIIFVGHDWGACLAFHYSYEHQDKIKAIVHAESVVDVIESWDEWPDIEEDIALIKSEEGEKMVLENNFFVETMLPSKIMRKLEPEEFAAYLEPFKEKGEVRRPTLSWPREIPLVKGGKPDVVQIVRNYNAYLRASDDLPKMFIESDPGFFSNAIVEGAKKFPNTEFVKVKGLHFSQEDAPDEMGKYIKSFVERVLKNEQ
Sequence of Rluc:caspase:EYFP fusion protein expressed in HeLa cells (pCEP4/Rluc-caspase-EYFP) (Renilla) (P27652 other isoform, or with tags, fused parts or gaps): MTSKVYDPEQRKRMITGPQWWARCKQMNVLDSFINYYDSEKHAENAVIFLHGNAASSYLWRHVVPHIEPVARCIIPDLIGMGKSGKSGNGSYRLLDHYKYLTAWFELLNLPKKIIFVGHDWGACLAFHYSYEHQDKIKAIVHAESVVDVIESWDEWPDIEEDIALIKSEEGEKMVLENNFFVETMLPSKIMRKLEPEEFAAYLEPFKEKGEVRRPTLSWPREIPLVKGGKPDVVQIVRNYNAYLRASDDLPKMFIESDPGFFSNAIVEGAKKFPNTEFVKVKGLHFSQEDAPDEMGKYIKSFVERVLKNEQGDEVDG
Sequence of Rluc:enterokinase:EYFP fusion protein, N-terminal His tag, purified from bacteria (pQE-32) (P27652 other isoform, or with tags, fused parts or gaps): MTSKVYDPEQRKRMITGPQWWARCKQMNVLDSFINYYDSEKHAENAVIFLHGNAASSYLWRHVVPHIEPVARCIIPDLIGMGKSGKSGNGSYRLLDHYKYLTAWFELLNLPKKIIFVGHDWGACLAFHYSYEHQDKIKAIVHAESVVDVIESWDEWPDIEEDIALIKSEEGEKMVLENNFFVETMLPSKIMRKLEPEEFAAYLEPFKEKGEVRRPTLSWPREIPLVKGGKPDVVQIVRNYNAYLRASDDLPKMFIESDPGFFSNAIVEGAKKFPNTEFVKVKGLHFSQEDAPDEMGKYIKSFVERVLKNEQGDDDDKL

With “cellular caspase-3 (HeLa cells) (from UniProt P42574 29-277) (enzyme)” the BRET ratio change in transfected HeLa cells after 5 hours of apoptosis induction by 1 uM staurosporine (unit (BRET ratio)) [1] was 0.1 and the BRET ratio change in transfected HeLa cells after 5 hours of apoptosis induction by 1 uM staurosporine (unit (BRET ratio)) [2] was 0.72.
For “enterokinase enzyme (Invitrogen, Carlsbad, Calif.)”, the “BRET ratio (emission at 550 nm / 470 nm) over four hours, purified protein with two units of enterokinase” value [3] was “Only the ratio for the construct Rluc:enterokinase:EYFP in the presence of the enterokinase enzyme decreased over time” and the “BRET ratio (emission at 550 nm / 470 nm) over four hours, purified protein with two units of enterokinase” value [4] was “The ratios from the negative controls (Rluc and Rluc:EYFP) did not change over time when in the presence or absence of the enterokinase enzyme”.
In the case of `CN[C@@H]1C[C@H]2O[C@@](C)([C@@H]1OC)n1c3ccccc3c3c4c(c5c6ccccc6n2c5c31)C(=O)NC4` [staurosporine], the “change in BRET ratio” value [5] is reported as “No change in BRET ratio”, the BRET ratio change [6] is reported as 0.72 unit and the BRET ratio change [7] is reported as 0.1 unit.
